Measured values as given in article PMC314469, “Protein Interaction Networks by Proteome Peptide Scanning” (PLoS Biology, 2004).

T1: Boi1 SH3 (BOI1_YEAST), P38041
T1 chain: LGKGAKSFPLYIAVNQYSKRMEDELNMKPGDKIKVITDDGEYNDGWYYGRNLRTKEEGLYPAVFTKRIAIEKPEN

T2: Yfr024 SH3 (LSB3_YEAST), P43603
T2 chain: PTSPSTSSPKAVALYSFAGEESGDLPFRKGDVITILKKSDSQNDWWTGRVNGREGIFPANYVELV

T3: Boi2 SH3 (BOI2_YEAST), P39969
T3 chain: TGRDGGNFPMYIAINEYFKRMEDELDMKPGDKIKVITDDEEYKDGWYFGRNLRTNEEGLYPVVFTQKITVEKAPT

T4: Yhr016c SH3 (YSC84_YEAST), P32793
T4 chain: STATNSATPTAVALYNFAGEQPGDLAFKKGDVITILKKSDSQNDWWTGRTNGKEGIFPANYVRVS

T5: Rvs167 SH3 (RV167_YEAST), P39743
T5 chain: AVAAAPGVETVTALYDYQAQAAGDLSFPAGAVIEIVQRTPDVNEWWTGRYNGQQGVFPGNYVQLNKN


What was measured:
Test in all cases: SPOT array
[1] = target: T1, Boi1 SH3 (BOI1_YEAST), P38041
[2] = target: T2, Yfr024 SH3 (LSB3_YEAST), P43603
[3] = target: T3, Boi2 SH3 (BOI2_YEAST), P39969
[4] = target: T4, Yhr016c SH3 (YSC84_YEAST), P32793
[5] = target: T5, Rvs167 SH3 (RV167_YEAST), P39743

| normalised SPOT signal, Boehringer light units (BLU); mean over the file's lines of this peptide [1] | normalised SPOT signal, Boehringer light units (BLU); mean over the file's lines of this peptide [2] | normalised SPOT signal, Boehringer light units (BLU); mean over the file's lines of this peptide [3] | normalised SPOT signal, Boehringer light units (BLU); mean over the file's lines of this peptide [4] | normalised SPOT signal, Boehringer light units (BLU); mean over the file's lines of this peptide [5] | Binder |
| --- | --- | --- | --- | --- | --- |
| 119 | 1070 | 22 | 6.2 | 29.9 | KELPEFPIKKYHKR [YMR266W 741-754] |
| 57 | 286 | 19.5 | 162 | 25.3 | KKDPNAPKRALSAY [YPR052C 15-28] |
| 9.1 | 3700 | 34.1 | 0 | 45.3 | KLKPSLPNKLVGKY [YPL242C 77-90] |
| 142 | 995 | 64.9 | 792 | 83.7 | KGAPFFPNKTFRKL [YPR144C 138-151] |
| 110 | 7040 | 46.7 | 1790 | 2650 | KKSPRLPHRNKKVT [YPR097W 347-360] |
| 73 | 16 | 33.9 | 10.6 | 25.5 | KDYPLSPPKLTFTP [YMR022W 62-75] |
| 119 | 43.8 | 74.7 | 99.2 | 39.9 | KDAPIEPPKYMGMG [YOR346W 673-686] |
| 17.6 | 196 | 16.9 | 105 | 66 | KLGPDTPIKVAGPL [YOR219C 616-629] |
| 168 | 326 | 23.8 | 60.1 | 10.8 | KERPKPPNKGDVGR [YOR233W 333-346] |
| 56.8 | 1300 | 22 | 112 | 33.3 | KKPPKIPKKVYTLE [YPR104C 439-452] |
| 92 | 907 | 27.4 | 65.2 | 21.7 | KHAPFIPVKPALEK [YPR095C 158-171] |

Further lines, the binder ahead of its results:

| Binder | normalised SPOT signal, Boehringer light units (BLU); mean over the file's lines of this peptide [1] | normalised SPOT signal, Boehringer light units (BLU); mean over the file's lines of this peptide [2] | normalised SPOT signal, Boehringer light units (BLU); mean over the file's lines of this peptide [3] | normalised SPOT signal, Boehringer light units (BLU); mean over the file's lines of this peptide [4] | normalised SPOT signal, Boehringer light units (BLU); mean over the file's lines of this peptide [5] |
| --- | --- | --- | --- | --- | --- |
| KDHPYDPEKDSVLK [YGR020C 97-110] | 51.3 | 0 | 3.7 | 0 | 21.7 |
| KALPKEPKKLLPNS [YIR010W 422-435] | 208 | 284 | 63.5 | 2810 | 44.4 |
| KLEPENPQKPSNTH [YFL054C 238-251] | 76 | 11.4 | 90.6 | 94.6 | 15.8 |
| KKDPNAPKRRLSAY [YBR089C-A 21-34] | 190 | 241 | 46.3 | 288 | 151 |
| KFIPNKPYRQFNTW [YGR019W 339-352] | 30.9 | 1220 | 55.9 | 417 | 51.7 |
| KISPSAPSKDSFTK [YAR002W 350-363] | 160 | 178 | 1.3 | 92.4 | 79.2 |
| KKDPFPPPKDLLVQ [YGR140W 421-434] | 103 | 332 | 49.2 | 109 | 12.2 |
| KKLPTGPSKKRQRK [YER164W 1280-1293] | 136 | 808 | 32.6 | 85.9 | 9.1 |
| KKYPRKPKKNLNLG [YDR485C 336-349] | 181 | 149 | 68.1 | 408 | 9.5 |
| KFHPPEPYKGKGIY [YHR147C 187-200] | 96.1 | 45.7 | 38.2 | 114 | 53.2 |
| KIMPPTPAKKVEFI [YAL024C 312-325] | 32 | 3000 | 180 | 682 | 178 |
